Data on one variant can be found in paper PMC5052687 (2016).

B1: MCvar1 PfEMP1 CIDRα2.8 domain (residues 576-745, C626S) [Plasmodium falciparum] / human CD36 ectodomain (residues 35-439) with C-terminal BAP tag, biotinylated [modified: biotin on the BAP tag (in vitro, BirA ligase); biotin on the BAP tag … (parent complex)
chain 1: EDKIMSYNAFFWMWVHDMLIDSIKWRDEHGRCINKDKGKTCIKGCNKKCISFQKWVEQKKTEWGKIKDHFRKQKDIPKDWTHDDFLQTLLMKDLLLEIIQDTYGDANEIKRIEALLEQAGVGGIDFAALAGLYTKGFVAEKDTTIDKLLQHEQKEADKCLKTHTDDTCPP
chain 2: QKTIKKQVVLEEGTIAFKNWVKTGTEVYRQFWIFDVQNPQEVMMNSSNIQVKQRGPYTYRVRFLAKENVTQDAEDNTVSFLQPNGAIFEPSLSVGTEADNFTVLNLAVAAASHIYQNQFVQMILNSLINKSKSSMFQVRTLRELLWGYRDPFLSLVPYPVTTTVGLFYPYNNTADGVYKVFNGKDNISKVAIIDTYKGKRNLSYWESHCDMINGTDAASFPPFVEKSQVLQFFSSDICRSIYAVFESDVNLKGIPVYRFVLPSKAFASPVENPDNYCFCTEKIISKNCTSYGVLDISKCKEGRPVYISLPHFLYASPDVSEPIDGLNPNEEEHRTYLDIEPITGFTLQFAKRLQVNLLVKPSEKIQVLKNLKRNYIVPILWLNETGTIGDEKANMFRSQVTGKIN

Variants of B1 are the subject of the assay. Put plainly: SPR; plateau of the top sensorgram (highest analyte concentration of the series); concentrations not given; parent: 62; read off a plot.
Regarding chain 1 D75A, the response was about 20 RU.
